# According to patent US11944665B2, “Methods and compositions for modulating lymphatic vessels in the central nervous system” (University of Virginia Patent Foundation, priority 2016, dated 2024):
# Entries after “also recorded” stand apart in the source; their conditions may differ.
# Assays:
# [1] = test system: meningeal lymphatic vessels; assay: Transcranial gel+VEGF-C156S in old mice (Example 4); assay type: in vivo, C57BL/6 mice; details: one month transcranial treatment, 2 h after OVA-A647 ICM
# Protocol: […] of a gel matrix alone (vehicle) or containing 200 ng of recombinant human VEGF-C156S was applied every two weeks on top of a thinned skull of old C57BL/6 mice. One month after the initial treatment, OVA-A647 was injected ICM and mice were transcardially perfused with saline 2 h post injection. […] OVA-A647 alone is shown in the inset in the upper right corner of each of FIGS. 27A and 27B, and LYVE-1 alone is shown in the inset in the lower right corner of each of FIGS. 27A and 27B.
# [2] = test system: meningeal lymphatic vessels; assay: i.c.v. (cisterna magna) injection of rhVEGF-c, meningeal lymphatic vessel diameter (FIG. 2D-E); assay type: in vivo, mice; details: single injection of recombinant protein into the CSF (i.c.v.)
# From the text: FIGS. 2A-H are a series of microscope images and graphs showing Molecular and structural characterization of meningeal lymphatic vessels. FIG. 2A is a series of representative images of Prox1 expression in the nuclei of Lyve-1^+ vessels in the dural sinuses of Prox1^tdT mice (scale bars, 10p m)(in order of left-to-right, the four panels show Lyve-1, Prox1-tdTOMATO, DAPI, and overlay). FIG. 2B is a series of representative images of podoplanin and Lyve-1 labelling on dural sinuses (scale bar, 40 μm) (in order of left-to-right, the three panels show Lyve-1. Podoplanin, and overlay). FIG. 2C is a series of representative images of VEGFR3 and Lyve-1 staining on dural sinuses (scale bar, 20 μm)(in order of left-to-right, the three panels show VEGFR3. Lyve-1, and overlay). For FIGS. 2D and 2E Adult mice were injected i.c.v. (cisterna magna) with 4 μg of rhVEGF-c (Cys156Ser) or with PBS. Meninges were harvested 7 and 14 days after the injection. […] FIG. 2E is a graph showing quantification of the meningeal lymphatic vessel diameter (mean±s.e.m.; n=4 mice each group, *P<0.05, two-way ANOVA with Bonferroni post hoc test). FIGS. 2F and 2G are a series of representative images of smooth muscle cells (alpha-smooth muscle actin, α-SMA) and Lyve-1 labelling on dural sinuses (scale bars, 50 μm (g) or 20 μm(g)). […]
# meningeal lymphatic = assay: Lymphatic drainage of fluorescent microbeads into deep cervical lymph nodes (FIG. 15); assay type: in vivo, mice; details: VEGF-c injected into CSF, 5 days after injection, vs PBS
# Protocol: FIGS. 15A-E are a series of diagrams, microscope images, and graphs showing modulation of the meningeal lymphatic affects drainage into the cervical lymph nodes. […] Fluorescent microbeads (0.5 μm in diameter-5 μl) were injected in the lateral ventricle of mice at a rate of 0.5 μl/min. 30 min later, the deep cervical lymph nodes were harvested, sliced and immunostained for the presence of fluorescent beads. FIG. 15B is a pair of representative sections of deep cervical lymph nodes from sham operated (left) and ligated (right) mice immunostained for lymphatic vasculature (Lyve-1), fluorescent microbeads and Lyve-1. Note the accumulation of microbeads in the subcapsular space of the lymph nodes in the sham operated mice (left). […] N=3-4 mice per group, Student-t-test. d. Quantification of the coverage of dCLN section by fluorescent beads in PBS and Visudyne injected mice (24 h after ablation). N=3-5 mice per group, *p<0.05, Student-t-test. e. Quantification of the coverage of dCLN section by fluorescent beads in PBS and VEGF-c injected mice (5 days after VEGF-c injection). N=4 mice per group.
Molecule,drainage of OVA-A647 into the dcLNs [1],OVA-A647 influx from the CSF into the parenchyma [1],diameter of meningeal lymphatic vessels [2],diameter of meningeal lymphatic vessels ([2]; listed as recombinant VEGF-c),lymphatic drainage (efficacy) after VEGF-c (meningeal lymphatic),lymphatic drainage (efficacy) after VEGF-c (meningeal lymphatic; listed as recombinant VEGF-c)
"VEGF-C156S: recombinant human VEGF-C156S, applied in a gel matrix on a thinned skull (protein, UniProt P49767 112-227, looked up, variant C156S) Vascular endothelial growth …: AHYNTEILKSIDNEWRKTQCMPREVCIDVGKEFGVATNTFFKPPSVSVYRCGGCCNSEGLQCMNTSTSYLSKTLFEITVPLSQGPKPVTISFANHTSCRCMSKLDVYRQVHSIIRR",increased,–,–,–,–,–
"VEGF-c: VEGFR3 agonist polypeptide, lymphangiogenic growth factor, SEQ ID NO: 1; recombinant protein injected into CSF (FIG. 2e used rhVEGF-c Cys156Ser) (protein, listed as Homo sapiens) MHLLGFFSVACSLLAAALLPGPREAPAAAAAFESGLDLSDAEPDAGEATAYASKDLEEQLRSVSSVDELMTVLYPEYWKMYKCQLRKGGWQHNREQANLNSRTEETIKFAAAHYNTEILKSIDNEWRKTQCMPREVCIDVGKEFGVATNTFFKPPCVSVYRCGGCCNSEGLQCMNTSTSYLSKTLFEITVPLSQGPKPVTISFANHTSCRCMSKLDVYRQVHSIIRRSLPATLPQCQAANKTCPTNYMWNNHICRCLAQEDFMFSSDAGDDSTDGFHDICGPNKELDEETCQCVCRAGLRPASCGPHKELDRNSCQCVCKNKLFPSQCGANREFDENTCQCVCKRTCPRNQPLNPGKCACECTESPQKCLLKGKKFHHQTCSCYRRPCTNRQKACEPGFSYSEEVCRCVPSYWKRPQMS",–,improved CSF influx into brain,increase in diameter; also recorded: increase the diameters of meningeal lymphatic vessels,sufficient to increase diameter,improves the drainage,increase drainage efficacy
